This note sets out measurements from patent publication US20030219846A1, “Assay for activity of the ActRIIB kinase” (Pfizer Inc., priority 2002, published 2003).

Series [1] deals with T1, his-catActRIIB kinase (Homo sapiens, UniProt Q13705).
T1 construct: His tag
In words: Scintillation method kinase assay (TCA precipitation, filter plate). It is filed as biochemical. The conditions noted are these: target peptide 176 μM or MBP 2 μM, 10 μM ATP, [33P]-ATP, 80 min, room temperature. The procedure:
A series of reaction mixtures comprising 25 mM HEPES (pH 7.3), 3 mM MgCl2, 1 mM MnCl2, 0.1 mM EDTA, 1 mM DTT, 0.2 mM sodium orthovanadate, 100 μg/ml BSA, 10 μM ATP, 0.25 μCi [^33P]y-ATP, and 16.5 μg/ml his-catActRIIB kinase was run in a total of 100 μl directly in a Durapore (Millipore) filter plate for 80 min at room temperature. The reaction was stopped by addition of an equal volume of ice cold TCA (10% or 25% v/v). After one hour at 4° C., the precipitate was collected under vacuum. The precipitate was washed five times with cold TCA. After drying overnight, scintillant was added to the well and plates counted in a Microbeta 1450 Trilux in the Paralux mode. Different reactions included either the target peptide (176 μM), MBP (2 μM), or no substrate.

For series [2], the target named is T1, his-catActRIIB kinase. In words: Autoradiographic kinase assay method (substrate phosphorylation). It is filed as biochemical. The conditions noted are these: 1 mg/ml target peptide or 2.5 μM MBP, 10 μM ATP, [32P]-ATP, 30 minutes, ambient temperature. The procedure:
A 20 μl reaction mixture comprising 2.5 μg/ml his-catActRIIB kinase, 1 mg/ml target peptide or 2.5 μM myelin basic protein (MBP), 10 μM ATP, 10 μCi [^32P]y-ATP (6000 Ci/mmol), 1 mg/ml bovine serum albumin (BSA), and 5 mM sodium orthovanadate in 25 mM HEPES (pH 7.3) was run for 30 minutes at ambient temperature. The reaction was stopped by adding ⅓ volume of 3× Laemmli buffer with β-mercaptoethanol and trace bromphenol blue (188 mM Tris pH 6.8, 3% SDS, 24% glycerol, 25% v/v, β-mercaptoethanol). The stopped reaction was loaded directly onto a 18% polyacrylamide/tris/glycine gel without boiling. The gel was run at about 100 volts to permit proper separation, washed for five minutes in water, and equilibrated for five minutes in semi-dry blotting buffer (48 mM Tris base, 39 mM glycine, 20% methanol, 0.375% SDS). Reaction products were then blotted onto a nitrocellulose filter for 48 minutes at 20 volts in a Bio-Rad semi-dry blotting apparatus and visualized and/or quantitated by autoradiography.

The target in another series is T2, target peptide.
T2 chain: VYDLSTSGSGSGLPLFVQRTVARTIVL

As for “H2N-Val-Tyr-Asp-Leu-Ser-Thr-Ser-Gly-Ser-Gly-Ser-Gly-Leu-Pro-Leu-Phe-Val-Gln-Arg-Thr-Val-Ala-Arg-Thr-Ile-Val-Leu-COOH (H-VYDLSTSGSGSGLPLFVQRTVARTIVL-OH; not fully specified) [target peptide, 27 amino acid substrate peptide for the ActRIIB kinase assay]”, the “signal from labelled substrate by scintillation counting” value with his-catActRIIB kinase [1] is reported as “performed very well”. Moreover, the “phosphorylation of substrate, labelled band visualized by autoradiography” value with his-catActRIIB kinase [2] was “labelled target peptide”.

B1: MBP: Myelin Basic Protein, a commonly used substrate for kinase assays (protein, UniProt P02687 1-169, looked up)
Myelin basic protein: AAQKRPSQRSKYLASASTMDHARHGFLPRHRDTGILDSLGRFFGSDRGAPKRGSGKDGHHAARTTHYGSLPQKAQGHRPQDENPVVHFFKNIVTPRTPPPSQGKGRGLSLSRFSWGAEGQKPGFGYGGRASDYKSAHKGLKGHDAQGTLSKIFKLGGRDSRSGSPMARR
For the molecule B1, the “signal from labelled substrate by scintillation counting” value in the series with his-catActRIIB kinase [1] is “negative result”. In addition, the “phosphorylation of substrate, labelled band visualized by autoradiography” value with his-catActRIIB kinase [2] is “labelled MBP”.

B2: his-catActRIIB kinase (protein)
chain: YGHVDIHEDPGPPPPSPLVGLKPLQLLEIKARGRFGCVWKAQLMNDFVAVKIFPLQDKQSWQSEREIFSTPGMKHENLLQFIAAEKRGSNLEVELWLITAFHDKGSLTDYLKGNIITWNELCHVAETMSRGLSYLHEDVPWCRGEGHKPSIAHRDFKSKNVLLKSDLTAVLADFGLAVRFEPGKPPGDTHGQVGTRRYMAPEVLEGAINFQRDAFLRIDMYAMGLVLWELVSRCKAADGPVDEYMLPFEEEIGQHPSLEELQEVVVHKKMRPTIKDHWLKHPGLAQLCVTIEECWDHDAEARLSAGCVEERVSLIRRSVNGTTSDCLVSLVTSVTNVDLPPKESSI
As to B2, the “phosphorylation of substrate, [32P]ATP autoradiography after gel electrophoresis and blotting” value with target peptide was “In the reaction mixture comprising target peptide, bands were visualized at 3 Kd and 40 Kd, corresponding to labelled target peptide and autophosphorylated his-catActRIIB kinase, respectively”; in the series with myelin basic protein, “In the reaction mixture comprising MBP, bands were visualized at 18 Kd and 40 Kd, corresponding to labelled MBP and autophosphorylated his-catActRIIB kinase, respectively”. In addition, the “phosphorylation of substrate, [33P]ATP, TCA precipitation on filter plate, scintillation counting” value with target peptide is listed as “the reaction performed very well with the target peptide as a substrate”; with myelin basic protein, “the reaction with MBP unexpectedly yields a negative result”.
